Two substances from publication PMC7098653 can be followed below.

The target in test [1] is LysIME-EF1 CBD (residues 168-237) with an N-terminal 6xHis-tag (E. faecalis phage). Description: SEC; single purified CBD proteins; Superdex 200, 20 mM Tris-HCl pH 8.0, 150 mM NaCl, 0.5 ml/min, 16°C.
Test [2] concerns the target full-length LysIME-EF1 (wild type), N-terminally 6xHis-tagged (E. faecalis phage). Description: crystal structure; Se-Met WT LysIME-EF1, space group P12(1)1, 1.75 Å, Se-SAD (PDB 6IST).
The target of test [3] is truncated LysIME-EF1 CBD fragment (8 kDa), product of the internal translation start at M168 (E. faecalis phage). In words: crystal structure; LysIME-EF1 CBD, space group I422, 1.75 Å, one molecule in the asymmetric unit, tetramer by crystallographic symmetry (PDB 6L00).

In test [1], “LysIME-EF1 CBD (residues 168-237) with an N-terminal 6xHis-tag (domain or fragment)” returned a stoichiometry N of 4.

Regarding “truncated LysIME-EF1 CBD fragment (8 kDa), product of the internal translation start at M168 (domain or fragment)”, the stoichiometry N in test [2] was 3; in test [3] it was 4.
